{"source": "IntAct's records for PubMed 29892012", "parents": {"B1": {"name": "Coiled-coil alpha-helical rod protein 1 (Homo sapiens), Q8TD31 (parent)", "chain": "MFPPSGSTGLIPPSHFQARPLSTLPRMAPTWLSDIPLVQPPGHQDVSERRLDTQRPQVTMWERDVSSDRQEPGRRGRSWGLEGSQALSQQAEVIVRQLQELRRLEEEVRLLRETSLQQKMRLEAQAMELEALARAEKAGRAEAEGLRAALAGAEVVRKNLEEGSQRELEEVQRLHQEQLSSLTQAHEEALSSLTSKAEGLEKSLSSLETRRAGEAKELAEAQREAELLRKQLSKTQEDLEAQVTLVENLRKYVGEQVPSEVHSQTWELERQKLLETMQHLQEDRDSLHATAELLQVRVQSLTHILALQEEELTRKVQPSDSLEPEFTRKCQSLLNRWREKVFALMVQLKAQELEHSDSVKQLKGQVASLQEKVTSQSQEQAILQRSLQDKAAEVEVERMGAKGLQLELSRAQEARRRWQQQTASAEEQLRLVVNAVSSSQIWLETTMAKVEGAAAQLPSLNNRLSYAVRKVHTIRGLIARKLALAQLRQESCPLPPPVTDVSLELQQLREERNRLDAELQLSARLIQQEVGRAREQGEAERQQLSKVAQQLEQELQQTQESLASLGLQLEVARQGQQESTEEAASLRQELTQQQELYGQALQEKVAEVETRLREQLSDTERRLNEARREHAKAVVSLRQIQRRAAQEKERSQELRRLQEEARKEEGQRLARRLQELERDKNLMLATLQQEGLLSRYKQQRLLTVLPSLLDKKKSVVSSPRPPECSASAPVAAAVPTRESIKGSLSVLLDDLQDLSEAISKEEAVCQGDNLDRCSSSNPQMSS", "partner": "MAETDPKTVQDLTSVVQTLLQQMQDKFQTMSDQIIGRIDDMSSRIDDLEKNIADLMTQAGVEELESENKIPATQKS"}, "B2": {"name": "Coiled-coil alpha-helical rod protein 1 (Homo sapiens), Q8TD31 (parent)", "chain": "B1 chain", "partner": "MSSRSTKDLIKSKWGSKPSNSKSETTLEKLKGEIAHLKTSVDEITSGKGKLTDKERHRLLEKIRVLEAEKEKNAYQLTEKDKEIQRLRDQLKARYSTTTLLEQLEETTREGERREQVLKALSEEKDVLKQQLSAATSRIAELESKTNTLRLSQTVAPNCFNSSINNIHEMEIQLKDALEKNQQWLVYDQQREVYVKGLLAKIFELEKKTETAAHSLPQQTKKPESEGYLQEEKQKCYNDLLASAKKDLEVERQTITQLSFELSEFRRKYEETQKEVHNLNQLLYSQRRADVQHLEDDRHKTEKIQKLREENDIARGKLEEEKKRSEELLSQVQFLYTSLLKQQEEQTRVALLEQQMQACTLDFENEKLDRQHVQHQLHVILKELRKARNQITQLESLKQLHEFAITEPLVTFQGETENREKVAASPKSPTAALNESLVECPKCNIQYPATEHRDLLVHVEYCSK"}, "B3": {"name": "Coiled-coil alpha-helical rod protein 1 (Homo sapiens), Q8TD31 (parent)", "chain": "B1 chain", "partner": "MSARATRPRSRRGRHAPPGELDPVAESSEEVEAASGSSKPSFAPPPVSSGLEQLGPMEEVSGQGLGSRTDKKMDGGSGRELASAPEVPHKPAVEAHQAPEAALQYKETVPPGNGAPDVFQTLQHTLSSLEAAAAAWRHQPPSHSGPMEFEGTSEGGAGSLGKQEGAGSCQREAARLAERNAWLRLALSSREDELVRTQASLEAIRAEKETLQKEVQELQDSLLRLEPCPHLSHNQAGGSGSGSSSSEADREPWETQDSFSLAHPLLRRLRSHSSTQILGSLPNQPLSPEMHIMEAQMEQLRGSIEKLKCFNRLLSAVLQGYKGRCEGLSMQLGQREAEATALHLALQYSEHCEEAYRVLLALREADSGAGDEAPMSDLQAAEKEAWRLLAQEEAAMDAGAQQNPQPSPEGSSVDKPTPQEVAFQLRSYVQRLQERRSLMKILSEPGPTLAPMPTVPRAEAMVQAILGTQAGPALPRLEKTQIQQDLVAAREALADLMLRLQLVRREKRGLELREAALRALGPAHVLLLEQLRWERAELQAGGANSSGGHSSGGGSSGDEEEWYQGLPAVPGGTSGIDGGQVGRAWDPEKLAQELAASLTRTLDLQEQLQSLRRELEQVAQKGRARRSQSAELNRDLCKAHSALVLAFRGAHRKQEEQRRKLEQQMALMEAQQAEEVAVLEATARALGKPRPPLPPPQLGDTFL"}, "B4": {"name": "Coiled-coil alpha-helical rod protein 1 (Homo sapiens), Q8TD31 (parent)", "chain": "B1 chain", "partner": "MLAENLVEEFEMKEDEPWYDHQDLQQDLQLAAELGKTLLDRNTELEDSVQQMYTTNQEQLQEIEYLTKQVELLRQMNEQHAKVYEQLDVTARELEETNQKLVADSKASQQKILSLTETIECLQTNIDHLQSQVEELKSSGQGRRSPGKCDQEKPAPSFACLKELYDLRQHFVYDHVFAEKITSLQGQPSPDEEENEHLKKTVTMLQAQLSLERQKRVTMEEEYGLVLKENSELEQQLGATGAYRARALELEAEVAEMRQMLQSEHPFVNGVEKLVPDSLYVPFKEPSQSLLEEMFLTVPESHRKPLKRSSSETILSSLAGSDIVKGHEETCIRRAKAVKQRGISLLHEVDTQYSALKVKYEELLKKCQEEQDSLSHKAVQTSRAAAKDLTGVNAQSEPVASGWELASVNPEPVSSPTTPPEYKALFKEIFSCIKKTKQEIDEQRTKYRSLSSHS"}, "B5": {"name": "Coiled-coil alpha-helical rod protein 1 (Homo sapiens), Q8TD31 (parent)", "chain": "B1 chain", "partner": "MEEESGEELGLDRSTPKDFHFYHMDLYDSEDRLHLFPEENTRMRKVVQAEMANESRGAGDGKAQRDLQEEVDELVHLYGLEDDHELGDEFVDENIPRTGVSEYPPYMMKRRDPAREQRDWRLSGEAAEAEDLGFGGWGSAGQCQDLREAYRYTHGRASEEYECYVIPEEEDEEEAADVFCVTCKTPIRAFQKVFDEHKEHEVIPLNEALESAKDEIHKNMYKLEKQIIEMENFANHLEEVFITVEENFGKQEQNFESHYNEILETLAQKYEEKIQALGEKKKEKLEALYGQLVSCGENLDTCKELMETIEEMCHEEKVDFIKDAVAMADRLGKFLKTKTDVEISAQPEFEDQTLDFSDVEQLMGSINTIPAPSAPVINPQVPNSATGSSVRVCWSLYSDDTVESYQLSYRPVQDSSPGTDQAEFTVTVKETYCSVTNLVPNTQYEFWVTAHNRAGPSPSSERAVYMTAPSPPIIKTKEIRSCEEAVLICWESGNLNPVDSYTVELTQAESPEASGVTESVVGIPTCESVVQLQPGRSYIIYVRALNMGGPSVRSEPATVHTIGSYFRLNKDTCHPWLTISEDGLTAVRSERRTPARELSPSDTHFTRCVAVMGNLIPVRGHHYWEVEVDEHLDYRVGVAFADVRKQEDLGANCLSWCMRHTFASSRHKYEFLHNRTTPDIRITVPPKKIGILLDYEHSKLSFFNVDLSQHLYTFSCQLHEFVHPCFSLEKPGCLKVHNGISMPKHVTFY"}, "B6": {"name": "Coiled-coil alpha-helical rod protein 1 (Homo sapiens), Q8TD31 (parent)", "chain": "B1 chain", "partner": "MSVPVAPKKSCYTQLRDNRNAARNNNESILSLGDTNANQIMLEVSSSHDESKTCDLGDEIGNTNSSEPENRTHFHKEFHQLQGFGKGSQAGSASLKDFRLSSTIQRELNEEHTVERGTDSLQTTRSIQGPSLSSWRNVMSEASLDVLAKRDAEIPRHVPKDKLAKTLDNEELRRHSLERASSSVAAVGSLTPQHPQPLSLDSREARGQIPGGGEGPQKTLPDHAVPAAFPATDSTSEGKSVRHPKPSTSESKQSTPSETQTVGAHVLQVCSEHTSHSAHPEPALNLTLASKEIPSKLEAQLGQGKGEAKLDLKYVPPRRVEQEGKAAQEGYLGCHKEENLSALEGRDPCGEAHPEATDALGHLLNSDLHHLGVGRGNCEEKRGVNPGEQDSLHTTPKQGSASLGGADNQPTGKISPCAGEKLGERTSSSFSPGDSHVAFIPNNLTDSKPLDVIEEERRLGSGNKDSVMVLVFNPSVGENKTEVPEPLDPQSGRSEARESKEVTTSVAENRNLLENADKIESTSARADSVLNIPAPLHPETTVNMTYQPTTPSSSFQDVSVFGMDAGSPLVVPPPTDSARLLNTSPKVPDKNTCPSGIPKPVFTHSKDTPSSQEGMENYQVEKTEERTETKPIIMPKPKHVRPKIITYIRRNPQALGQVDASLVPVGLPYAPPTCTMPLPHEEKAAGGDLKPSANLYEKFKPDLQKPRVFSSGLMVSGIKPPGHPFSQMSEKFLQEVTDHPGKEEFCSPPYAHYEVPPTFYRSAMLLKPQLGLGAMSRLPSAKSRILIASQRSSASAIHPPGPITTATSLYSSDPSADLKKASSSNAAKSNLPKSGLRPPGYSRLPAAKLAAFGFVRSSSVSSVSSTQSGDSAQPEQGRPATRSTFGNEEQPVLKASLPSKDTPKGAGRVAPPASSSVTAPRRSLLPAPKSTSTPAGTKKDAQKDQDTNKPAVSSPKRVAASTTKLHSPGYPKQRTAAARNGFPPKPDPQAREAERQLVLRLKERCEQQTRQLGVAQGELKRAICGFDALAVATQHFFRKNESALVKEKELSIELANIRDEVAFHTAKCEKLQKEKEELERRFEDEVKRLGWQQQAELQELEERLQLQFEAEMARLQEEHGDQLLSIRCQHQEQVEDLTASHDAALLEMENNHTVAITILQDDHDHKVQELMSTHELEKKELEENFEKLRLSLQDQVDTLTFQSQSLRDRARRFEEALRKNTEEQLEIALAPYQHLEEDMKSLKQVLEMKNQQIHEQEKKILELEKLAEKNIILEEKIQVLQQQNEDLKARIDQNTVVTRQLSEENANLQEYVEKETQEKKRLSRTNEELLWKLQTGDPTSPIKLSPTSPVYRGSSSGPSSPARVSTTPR"}}, "data": [{"variants_of": "B1", "conditions": "with hsbp1_human HSBP1, O75506", "values": [{"variant": "W337R", "effect of a mutation on the interaction": "disrupting interaction strength"}]}, {"variants_of": "B2", "conditions": "with cep55_human CEP55, Q53EZ4", "values": [{"variant": "W337R", "effect of a mutation on the interaction": "disrupting interaction strength"}]}, {"variants_of": "B3", "conditions": "with usbp1_human USHBP1, Q8N6Y0", "values": [{"variant": "W337R", "effect of a mutation on the interaction": "disrupting interaction strength"}]}, {"variants_of": "B4", "conditions": "with cdr2_human CDR2, Q01850", "values": [{"variant": "W337R", "effect of a mutation on the interaction": "disrupting interaction strength"}]}, {"variants_of": "B5", "conditions": "with fsd2_human FSD2, A1L4K1", "values": [{"variant": "W337R", "effect of a mutation on the interaction": "with no effect"}]}, {"variants_of": "B6", "conditions": "with mtus2_human MTUS2, Q5JR59", "values": [{"variant": "W337R", "effect of a mutation on the interaction": "disrupting interaction strength"}]}]}
